Biological target: Nup358-min-GST, human Nup358 residues 2148-2240 (human, UniProt P49792 2148-2240)
Experiment: pull-down

Sequence of Nup358-min-GST, human Nup358 residues 2148-2240 (P49792 2148-2240): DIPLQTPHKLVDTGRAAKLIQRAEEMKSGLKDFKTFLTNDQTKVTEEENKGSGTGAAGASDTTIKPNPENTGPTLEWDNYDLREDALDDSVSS

B1: human Bicaudal D2 C-terminal cargo-binding domain, wild type (domain or fragment, UniProt Q8TD16 715-804, looked up)
chain: YENEKAMVTETMMKLRNELKALKEDAATFSSLRAMFATRCDEYITQLDEMQRQLAAAEDEKKTLNSLLRMAIQQKLALTQRLELLELDHE
B1: binds.
